± gives the uncertainty stated by the source.

The data set in a line: protein stability index of a GFP-peptide fusion (yeast GPS) (PSI 1-4); higher = more stable; sorted into four equal gates, so the index is relative within each strain. The essentials:
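Tiled yeast protein peptides of 17 residues were each joined downstream of GFP, on plasmids that also express Cherry. The pooled library was maintained in yeast, and mid-log cultures in leucine-free medium were sorted into four equal gates on the GFP/Cherry ratio. Plasmids from every gate were amplified by PCR and sequenced on Illumina, with barcodes linking reads to strains. The protein stability index of a peptide is its gate-number-weighted read frequency summed over the gates.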

As for VYSFDPVGSYEREQCRA [PRE7], the protein stability index worked out at 3.62 ± 0.23 (doa10∆), 3.47 ± 0.23 (pdr5∆), 3.27 ± 0.13 (san1∆) and 3.29 ± 0.091 (ubr1∆).

In the case of TINGKVNGRTKSNTIPV [GAL11], the protein stability index was 3 ± 0.091 (doa10∆), 2.77 ± 0.12 (pdr5∆), 3.02 ± 0.099 (san1∆) and 3.19 ± 0.097 (ubr1∆).

In the case of GRMDMTRLYDYEIRDID [SSN2], the protein stability index reads like this: (doa10∆) 3.29 ± 0.24; (pdr5∆) 2.94 ± 0.15; (san1∆) 3.38 ± 0.074; (ubr1∆) 3.36 ± 0.096.

As for LLRYGGAFTIALAYAGT [RPN2], the protein stability index reads like this: (doa10∆) 2.02 ± 0.084; (pdr5∆) 2.27 ± 0.11; (san1∆) 1.91 ± 0.12; (ubr1∆) 2.24 ± 0.051.

LLSLNSVRSLQKRIENG [SRP68]: the protein stability index stood at 2.13 ± 0.069 (doa10∆), 1.65 ± 0.063 (pdr5∆), 2.1 ± 0.091 (san1∆) and 2.25 ± 0.078 (ubr1∆).

As to RAKSSSHLFNEYSYVDS [RPN4], the protein stability index was 2.62 ± 0.16 (doa10∆), 3.23 ± 0.24 (pdr5∆), 3.25 ± 0.19 (san1∆) and 2.63 ± 0.12 (ubr1∆).

ETAKMIENMTKEKVSNG [FAS2]: the protein stability index stood at 3.41 ± 0.3 (doa10∆), 3.28 ± 0.13 (pdr5∆), 3.57 ± 0.091 (san1∆) and 3.02 ± 0.11 (ubr1∆).

In turn, REKYNMKGPAALWDVQF [ARP9] came in with a protein stability index (doa10∆) of 3.49 ± 0.073, a protein stability index (pdr5∆) of 3.59 ± 0.08, a protein stability index (san1∆) of 3.49 ± 0.062 and a protein stability index (ubr1∆) of 3.45 ± 0.064.

Turning to FLSPYISTHLKTICNLL [IRR1], the protein stability index was 1.57 ± 0.05 (doa10∆), 1.76 ± 0.065 (pdr5∆), 1.69 ± 0.1 (san1∆) and 1.29 ± 0.038 (ubr1∆).

Take QLDLTGIFLHGKIPTLK [PRP8]: the protein stability index is, setting by setting: (doa10∆) 2.39 ± 0.078; (pdr5∆) 1.43 ± 0.058; (san1∆) 1.58 ± 0.089; (ubr1∆) 1.36 ± 0.046.

TYLTQEILILINDPTNK [SIN4]: the protein stability index was 1.31 ± 0.06 (doa10∆), 1.55 ± 0.051 (pdr5∆), 1.36 ± 0.091 (san1∆) and 1.26 ± 0.05 (ubr1∆).

Take KKWKKYWQYKAGIPIGL [SWP82]: the protein stability index (doa10∆) turned out to be 1.94 ± 0.067, the protein stability index (pdr5∆) is 2.25 ± 0.081, the protein stability index (san1∆) is 2.61 ± 0.11 and the protein stability index (ubr1∆) stood at 2.01 ± 0.04.

As to YEDEELSRAEYDSDSDS [LIN1], the protein stability index was 3.19 ± 0.1 (doa10∆), 3.33 ± 0.087 (pdr5∆), 3.08 ± 0.057 (san1∆) and 3.23 ± 0.055 (ubr1∆).

TSTDFPGFSKDAENEWN [RPC40]: the protein stability index (pdr5∆) amounted to 3.1 ± 0.22.

NGITLALIDAGISMFDY [SKI6] came in with a protein stability index (doa10∆) of 1.38 ± 0.068, a protein stability index (pdr5∆) of 1.51 ± 0.042, a protein stability index (san1∆) of 1.59 ± 0.14 and a protein stability index (ubr1∆) of 1.56 ± 0.038.

Consider EKADYEDEMMHEEDQKT [RPN12], for which the protein stability index (pdr5∆) was determined as 2.97 ± 0.15 and the protein stability index (ubr1∆) was 3.03 ± 0.17.

FELCSLGDKELWPVAIG [YJR042W/NUP85] displayed a protein stability index (ubr1∆) of 2.49 ± 0.28.

LSEATESDLYKLKECPF [RPB2]: the protein stability index by setting is: (doa10∆) 3.12 ± 0.11; (pdr5∆) 2.91 ± 0.19; (san1∆) 3.23 ± 0.1; (ubr1∆) 2.91 ± 0.1.

Turning to LETEQLSSELDSNKTLL [SMC2], the protein stability index is 3.35 ± 0.071 (doa10∆), 3.32 ± 0.082 (pdr5∆), 3.26 ± 0.05 (san1∆) and 3.31 ± 0.049 (ubr1∆).

Turning to PNNETSVLSSKPGSKPE [SIR3], the protein stability index was 3.12 ± 0.11 (doa10∆), 3.04 ± 0.12 (pdr5∆), 3.06 ± 0.082 (san1∆) and 2.96 ± 0.064 (ubr1∆).

As to NSSRFSDPMLQRTATLC [YCS4], the protein stability index is 2.81 ± 0.12 (doa10∆), 2.98 ± 0.093 (pdr5∆), 3.21 ± 0.093 (san1∆) and 3.02 ± 0.078 (ubr1∆).

In the case of FAGVASMNVTLGVPRIK [RPO31], the protein stability index is, setting by setting: (doa10∆) 2.82 ± 0.095; (pdr5∆) 2.78 ± 0.086; (san1∆) 2.94 ± 0.079; (ubr1∆) 2.76 ± 0.064.

In the case of PEESKGSFKYITARSAF [SWP82], the protein stability index by setting is: (doa10∆) 2.85 ± 0.068; (pdr5∆) 3.04 ± 0.076; (san1∆) 3.1 ± 0.053; (ubr1∆) 3.15 ± 0.06.

As for MAMNITPRLYTDRSRDF [RPB2], the protein stability index by setting is: (doa10∆) 2.93 ± 0.089; (pdr5∆) 3 ± 0.087; (san1∆) 2.96 ± 0.096; (ubr1∆) 3.2 ± 0.087.

As for TRDETVSLIKKYKLISR [YML103C/NUP188], the protein stability index worked out at 2.48 ± 0.1 (doa10∆), 2.56 ± 0.13 (pdr5∆), 2.51 ± 0.11 (san1∆) and 2.41 ± 0.12 (ubr1∆).

Turning to ENDTTLVKTKELIKNYI [FAS1], the protein stability index (doa10∆) is 3.04 ± 0.13, the protein stability index (pdr5∆) stood at 2.85 ± 0.15, the protein stability index (san1∆) is 2.83 ± 0.13 and the protein stability index (ubr1∆) came to 2.68 ± 0.058.

Consider ELENSSPELKAELRPLQ [RPS7A], for which the protein stability index runs as follows: (doa10∆) 3.04 ± 0.24; (pdr5∆) 3.53 ± 0.11; (san1∆) 2.97 ± 0.15; (ubr1∆) 3.64 ± 0.15.

On to RHLEKEGIIKPISKHSK [RPS25A], for which the protein stability index (doa10∆) stood at 3.04 ± 0.084, the protein stability index (pdr5∆) was 3.28 ± 0.093, the protein stability index (san1∆) was determined as 2.96 ± 0.084 and the protein stability index (ubr1∆) worked out at 3.01 ± 0.076.

Regarding FDDILKVGAEMMMQQQL [MED2], the protein stability index is 2.66 ± 0.11 (doa10∆), 2.44 ± 0.093 (pdr5∆), 2.53 ± 0.13 (san1∆) and 2.46 ± 0.086 (ubr1∆).

EEVNRCYLRWQHLRNEH [SNF2]: the protein stability index came out at 3.27 ± 0.07 (doa10∆), 3 ± 0.075 (pdr5∆), 3.23 ± 0.071 (san1∆) and 3.05 ± 0.075 (ubr1∆).

For PENTAMFNPLHESYCLP [YMR129W/POM152], the protein stability index (doa10∆) turned out to be 2.44 ± 0.043, the protein stability index (pdr5∆) is 2.66 ± 0.042, the protein stability index (san1∆) came out at 2.66 ± 0.037 and the protein stability index (ubr1∆) worked out at 2.6 ± 0.03.

Consider SKVIIKFLQVMQKHGYI [RPS22A], for which the protein stability index is, setting by setting: (doa10∆) 1.95 ± 0.038; (pdr5∆) 1.84 ± 0.038; (san1∆) 1.76 ± 0.066; (ubr1∆) 2 ± 0.039.

Regarding ASTINGASIIQVIFEIF [YML103C/NUP188], the protein stability index is, setting by setting: (doa10∆) 1.43 ± 0.059; (pdr5∆) 1.9 ± 0.054; (san1∆) 1.95 ± 0.087; (ubr1∆) 1.94 ± 0.046.

Turning to TPPVVVVGVVGYVETPR [RPL3], the protein stability index (doa10∆) was 1.81 ± 0.086, the protein stability index (pdr5∆) was determined as 2.33 ± 0.068, the protein stability index (san1∆) was found to be 1.46 ± 0.072 and the protein stability index (ubr1∆) came out at 2.86 ± 0.17.

Turning to KEIYTTLGNQMLSAHNI [YJR042W/NUP85], the protein stability index (doa10∆) was 2.85 ± 0.099, the protein stability index (pdr5∆) was determined as 2.82 ± 0.077, the protein stability index (san1∆) worked out at 3.12 ± 0.079 and the protein stability index (ubr1∆) was found to be 3.08 ± 0.063.

In the case of QTSVTTNFNEITNTDET [SWP82], the protein stability index reads like this: (doa10∆) 2.84 ± 0.061; (pdr5∆) 3.09 ± 0.051; (san1∆) 2.86 ± 0.042; (ubr1∆) 3.14 ± 0.039.

For the sequence ETPEGQACGLVKNLSLM [RPB2], the protein stability index (doa10∆) turned out to be 1.67 ± 0.13, the protein stability index (pdr5∆) was 2.25 ± 0.12, the protein stability index (san1∆) was 3.01 ± 0.11 and the protein stability index (ubr1∆) turned out to be 3.03 ± 0.13.

For ALDTVTNVLNFIKLQKI [FAS1], the protein stability index reads like this: (doa10∆) 2.76 ± 0.069; (pdr5∆) 2.04 ± 0.067; (san1∆) 2.14 ± 0.13; (ubr1∆) 2.15 ± 0.055.

For the sequence EDPKRRADTMDFKTDVD [YJL039C/NUP192], the protein stability index was 3.29 ± 0.1 (doa10∆), 3.51 ± 0.086 (pdr5∆), 3.4 ± 0.096 (san1∆) and 3.24 ± 0.1 (ubr1∆).

Source of the values: the supplement of paper PMC9732359.
